Target: T1, OsbHLH148 (bHLH148-6xHis) (Oryza sativa) (UniProt Q75KV9)
T1 sequence: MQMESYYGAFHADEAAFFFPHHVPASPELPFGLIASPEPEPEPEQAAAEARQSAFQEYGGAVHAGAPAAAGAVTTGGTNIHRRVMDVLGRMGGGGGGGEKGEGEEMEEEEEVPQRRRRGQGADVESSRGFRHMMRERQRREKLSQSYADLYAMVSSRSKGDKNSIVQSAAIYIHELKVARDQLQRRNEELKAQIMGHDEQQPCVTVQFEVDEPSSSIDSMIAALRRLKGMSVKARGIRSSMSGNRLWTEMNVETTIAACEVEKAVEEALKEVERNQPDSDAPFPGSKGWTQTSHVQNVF
Experiment: EMSA
Details: 10 mM Tris pH 7.5, 50 mM KCl, 1 mM DTT, 2.5% glycerol, 5 mM MgCl (so in the source), 0.05% NP-40, 50 ng/ul poly(dI-dC); 20 min room temperature; 5% native PAGE

In the case of “AAATAAATAAGACAGACGATTAAAATTAGATACGTAAATCATGGCGGCGTTTAAAATGGGATGGATTGAGTAGTACACTGTACCAGCGTACCCTTTTGTACTCATAGGAAGACTTCGACATTTTCAAACACTTGAGGACAACTTTCCAATTCAATAACAATACTACTCCACACGTGGCTGAAATGGCTGAAAAAGTTCCA (double strand) [OsRAP2.6 promoter fragment]”, the binding is reported as “binds”.
